Experimental data as given in patent US20060253917A1 (published 2006).
One block for each binder: values may come before it. Ends that are not written are not given here.

Key:
[1] = target: T1, Os018989-4003 aa 90-220 (Oryza sativa); experiment: Y2H; input trait library
T1 construct: bait, Gal4 DBD fusion; also called PN21044
T1 chain: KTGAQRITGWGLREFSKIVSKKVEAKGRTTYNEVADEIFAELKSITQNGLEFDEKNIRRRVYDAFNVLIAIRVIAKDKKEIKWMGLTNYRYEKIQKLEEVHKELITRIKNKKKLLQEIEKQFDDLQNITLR
Procedure, shortened: (§1)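 Protein-protein interactions were detected with an automated, high-throughput yeast two-hybrid assay provided by Myriad Genetics Inc. (Salt Lake City, Utah). A bait clone encoding a defined amino-acid fragment of a rice protein was screened against a rice prey library, either the input trait or the output trait library. Prey clones were retrieved, and their encoding sequences were compared by BLAST against databases to identify the interacting proteins.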

[2] = target: T2, OsHSP70 aa 138-360 (Oryza sativa); experiment: Y2H; output trait library
T2 construct: bait, Gal4 DBD fusion; also called PN20775; heat shock protein hsp70
Procedure, shortened: (§2)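 The values record whether an interaction was detected. In an automated, high-throughput yeast two-hybrid screen from Myriad Genetics Inc., rice protein fragments defined by amino-acid range were used as bait against rice prey clone libraries. Full-length genes were identified by BLAST comparison of the sequences encoding the interacting prey fragments against databases.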

[3] = target: T3, OsCYCOS2 aa 50-233 (Oryza sativa, UniProt A2YH60 50-233); experiment: Y2H; input trait library
T3 construct: bait, Gal4 DBD fusion; also called PN20257; O. sativa Cyclin OsCYCOS2
T3 chain: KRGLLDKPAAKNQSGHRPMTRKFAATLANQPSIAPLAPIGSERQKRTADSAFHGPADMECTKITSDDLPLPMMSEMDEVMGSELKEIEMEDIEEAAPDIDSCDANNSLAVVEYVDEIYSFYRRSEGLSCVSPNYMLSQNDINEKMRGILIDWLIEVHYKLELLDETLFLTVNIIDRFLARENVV
Procedure, shortened: as §1

[4] = target: T4, OsMADS45 aa 50-198 (Oryza sativa, UniProt P0C5B0 50-198); experiment: Y2H; input trait library
T4 construct: bait, Gal4 DBD fusion; also called PN20231; O. sativa MADS box protein MADS45
T4 sequence: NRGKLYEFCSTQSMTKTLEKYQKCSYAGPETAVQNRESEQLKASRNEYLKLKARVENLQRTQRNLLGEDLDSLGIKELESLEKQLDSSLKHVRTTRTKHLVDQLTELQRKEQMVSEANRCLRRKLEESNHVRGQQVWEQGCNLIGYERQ
Procedure, shortened: as §1

[5] = target: T4, OsMADS45 aa 50-198; experiment: Y2H; output trait library
Procedure, shortened: as §1

[6] = target: T5, OsHOS59 aa 1-206 (Oryza sativa, UniProt Q94LW4 113-311); experiment: Y2H; output trait library
T5 construct: bait, Gal4 DBD fusion; also called PN20559
T5 sequence: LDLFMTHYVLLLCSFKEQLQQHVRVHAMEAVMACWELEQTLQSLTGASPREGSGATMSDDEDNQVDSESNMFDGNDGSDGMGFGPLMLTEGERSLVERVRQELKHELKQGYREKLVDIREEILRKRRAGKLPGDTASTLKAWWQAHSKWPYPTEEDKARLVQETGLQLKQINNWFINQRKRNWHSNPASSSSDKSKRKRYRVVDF
Procedure, shortened: as §1

[7] = target: T6, OsSGT1 aa 200-368 (Oryza sativa, UniProt Q0JL44 200-367); experiment: Y2H; output trait library
T6 construct: bait, Gal4 DBD fusion; also called PN20285
T6 sequence: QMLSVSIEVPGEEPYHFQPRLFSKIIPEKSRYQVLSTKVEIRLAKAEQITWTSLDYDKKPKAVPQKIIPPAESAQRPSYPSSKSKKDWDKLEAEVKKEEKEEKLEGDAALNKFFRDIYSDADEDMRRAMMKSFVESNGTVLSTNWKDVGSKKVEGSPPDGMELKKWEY
Procedure, shortened: as §2

[8] = target: T7, OsMADS45 aa 61-248 (Oryza sativa, UniProt P0C5B0 61-248); experiment: Y2H; output trait library
T7 construct: prey, AD fusion; also called PN20231
T7 sequence: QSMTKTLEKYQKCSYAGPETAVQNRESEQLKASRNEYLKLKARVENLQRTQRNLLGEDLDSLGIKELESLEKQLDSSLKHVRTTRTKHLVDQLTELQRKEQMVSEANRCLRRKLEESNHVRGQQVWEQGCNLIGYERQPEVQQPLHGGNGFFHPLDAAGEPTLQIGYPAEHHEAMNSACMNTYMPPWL
Procedure, shortened: as §1

[9] = target: T8, OsTFX1 aa 400-629 (Oryza sativa); experiment: Y2H; output trait library
T8 construct: bait, Gal4 DBD fusion; also called PN19697; O. sativa Putative Transcription Factor X1
Procedure, shortened: as §1

T2 sequence (chain, as listed by the source): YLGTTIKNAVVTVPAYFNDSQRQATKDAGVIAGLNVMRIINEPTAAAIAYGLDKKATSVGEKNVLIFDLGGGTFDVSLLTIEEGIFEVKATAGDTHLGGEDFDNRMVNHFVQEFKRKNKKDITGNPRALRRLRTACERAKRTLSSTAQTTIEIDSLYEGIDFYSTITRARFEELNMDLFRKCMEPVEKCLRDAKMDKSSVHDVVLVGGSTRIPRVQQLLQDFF
T8 sequence (chain, as listed by the source): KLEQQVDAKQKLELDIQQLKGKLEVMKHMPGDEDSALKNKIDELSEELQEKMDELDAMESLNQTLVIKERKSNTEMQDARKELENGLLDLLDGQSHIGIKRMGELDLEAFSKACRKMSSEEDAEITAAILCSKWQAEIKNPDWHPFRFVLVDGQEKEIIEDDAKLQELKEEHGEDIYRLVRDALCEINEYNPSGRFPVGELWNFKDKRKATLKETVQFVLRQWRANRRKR

binding result [4]: binds
B8: OsPN23495 aa 12-198 (other)
chain: PPAAAEDGRVTSHVDPFLVEALDNPRHRLMVLRMAMDIQKFMQNPQLHEFEFQHFPTSYLRCAAHRVAQHYGLETTVADSLVDGSVSKIVAKKTSESKLPVIALSEVPSKQARNEHEAAEKLKFVICPRPKAFQNGAGDAGAKNNAARTVEERIEEYNKARARIFNGSISDIEGTSDLGALSVARDE
notes: prey, AD fusion

binding result [6]: binds
B9: OsPN23829 aa 1-247 (other)
chain: MALSVEKTSSGREYKVKDLSQADFGRLEIELAEVEMPGLMACRAEFGPSQPFKGARISGSLHMTIQTAVLIETLTALGAEVRWCSCNIFSTQDHAAAAIARDSAAVFAWKGETLEEYWWCTERCLDWGVGGGPDLIVDDGGDATLLIHEGVKAEEEFEKSGKVPDPESTDNAEFKIVLTIIRDGLKSDPSKYRKMKERLVGVSEETTTGVKRLYQMQETGALLFPAINVNDSVTKSKFDNLYGCRHS
notes: prey, AD fusion

binding result [2]: binds
B10: OsPN29117 aa 11-160 (other)
chain: GPAVRLRVSHGASFRDVAVPAHSTFGELKGVLTQATGVEPERQRLFFRGKEKSDNEFLHTAGVKDGAKLLLLEKPAPANVEQRAEPVIMDESMMKACEAVGRVRAEVDRLSAKVCDLEKSVFAGRKIEDKDFVVLTELLMMELLKLDGIE
notes: prey, AD fusion

binding result [7]: binds
B11: PN23949 aa 244-418 (other)
chain: HKLKSSLILMPMVSLLLLLLIRVLGRNRISPSPALSTLPKDEVERMVEEADKFAQEDKEKRDAIDTKNQADSVVYQTEKQLKELGDKVPAPVKEKVDAKLNELKEAIAGGSTQSMKDAMAALNEEVMQIGQAMYNQQPNAGAAGPTPGADAGPTSSGGKGPNDGDVIDADFTDSN
notes: prey, AD fusion; also called HSP70-like

binding result [1]: binds
B12: OsAAK72891 aa 342-638 (other)
chain: LQEKTEELFKFKREKGLLTLKNDVEFEPLRKKIPQIISRMDQIISKNIKMPSLCMTNDGLDERCISAKRIDSLYYENQHLRGLLADNMKDVKELSSQLSEASKEMSIQLSSEDDLLRQIAKIKEEYEDLQIEAGVRDGVYQTITRKLLDDSMNSMHDAATNFSTELSSLEAMISEKEKALCLSNEENRMLKEKIAELEQCLIQDKQEDPEVIKQESTEIILRDIEVAPHISPRRSHETPKQDMQYDELVKLNSSLEIASAALKEVENKNIDYNGIFTKNEQEKQLECILISIMKLSK
notes: prey, AD fusion; also called PN26317; O. sativa Putative Myosin Heavy Chain

binding result [8]: binds
B13: OsRAP1B aa 30-180 (other)
chain: KKANEISVLCDAEVALIIFSTKGKLYEYATDSCMDKILERYERYSYAEKVLISAESDTQGNWCHEYRKLKAKVETIQKCQKHLMGEDLESLNLKELQQLEQQLENSLKHIRSRKSQLMLESINELQRKEKSLQEENKVLQKELVEKQKVQK
notes: bait, Gal4 DBD fusion; also called PN20232

binding result [5]: binds
B14: OsMADS14 aa 124-223 (other)
chain: ELQQLEQQLENSLKHIRSRKSQLMLESINELQRKEKSLQEENKVLQKELVEKQKVQKQQVQWDQTQPQTSSSSSSFMMREALPTTNISNYPAAAGERIED
notes: prey, AD fusion; also called PN20910

binding result [9]: binds
B15: OsPN23829 prey clone -2-195 (other)
chain: MALSVEKTSSGREYKVKDLSQADFGRLEIELAEVEMPGLMACRAEFGPSQPFKGARISGSLHMTIQTAVLIETLTALGAEVRWCSCNIFSTQDHAAAAIARDSAAVFAWKGETLEEYWWCTERCLDWGVGGGPDLIVDDGGDATLLIHEGVKAEEEFEKSGKVPDPESTDNAEFKIVLTIIRDGLKSDPSKYRKM
notes: prey, AD fusion

binding result [9]: binds
B16: OsPN23829 prey clone -4-226 (other)
chain: MALSVEKTSSGREYKVKDLSQADFGRLEIELAEVEMPGLMACRAEFGPSQPFKGARISGSLHMTIQTAVLIETLTALGAEVRWCSCNIFSTQDHAAAAIARDSAAVFAWKGETLEEYWWCTERCLDWGVGGGPDLIVDDGGDATLLIHEGVKAEEEFEKSGKVPDPESTDNAEFKIVLTIIRDGLKSDPSKYRKMKERLVGVSEETTTGVKRLYQMQETGALLFPA
notes: prey, AD fusion

binding result [6]: binds
B17: OsPN30858 aa 230-400 (other)
chain: VRTFLERTHERCRASYMEAVLEKQSYILLSRNDVESLMRLDPANLSLQNSFGQLDHSIPDAEAVEVEIELSDLLLDMCPIKQENLIHDDQKLILLASLSDSLEYLADSVERLGESFINSSTMLENKNHIHQGRHTRSTSAIPKSLASLANEYRRLAIDCVRVLRLEMQLET
notes: prey, AD fusion; also called Novel Protein PN30858

binding result [7]: binds
B18: OsSGT1 aa 9-227 (other)
chain: LESKAKAAFVDDDFELAAELYTQAIEASPATAELYADRAQAHIKLGNYTEAVADANKAIELDPSMHKAYLRKGAACIRLEEYQTAKAALELGYSFASGDSRFTRLMKECDERIAEELTEVPVKKAEDGAAAPSVASFVEEKDDAANMDNTPPMVEVKPKYRHDFYNSATEVVLTIFAKGVPAENVVVDFGEQMLSVSIEVPGEEPYHFQPRLFSKIIPE
notes: prey, AD fusion; also called PN20285

Continued, binder first:

B1: OsAAK72891 aa 322-549 (other)
chain: EIITYFKSEMSKLKRMHELDLQEKTEELFKFKREKGLLTLKNDVEFEPLRKKIPQIISRMDQIISKNIKMPSLCMTNDGLDERCISAKRIDSLYYENQHLRGLLADNMKDVKELSSQLSEASKEMSIQLSSEDDLLRQIAKIKEEYEDLQIEAGVRDGVYQTITRKLLDDSMNSMHDAATNFSTELSSLEAMISEKEKALCLSNEENRMLKEKIAELEQCLIQDKQED
notes: prey, AD fusion; also called PN26317
binding result [1]: binds

B2: OsPN29117 aa 29-160 (other)
chain: VPAHSTFGELKGVLTQATGVEPERQRLFFRGKEKSDNEFLHTAGVKDGAKLLLLEKPAPANVEQRAEPVIMDESMMKACEAVGRVRAEVDRLSAKVCDLEKSVFAGRKIEDKDFVVLTELLMMELLKLDGIE
notes: prey, AD fusion
binding result [2]: binds

B3: PN23416 aa 130-176 (other)
chain: YFEKQRAMNQVRQRVFQQAVQGALGTLNSCLNTELHFRTIRANISIL
modifications: not fully specified
notes: prey, AD fusion; also called Chloroplast ATPase I Subunit
binding result [3]: binds

B4: OsPN23495 aa 39-165 (other)
chain: RLMVLRMAMDIQKFMQNPQLHEFEFQHFPTSYLRCAAHRVAQHYGLETTVADSLVDGSVSKIVAKKTSESKLPVIALSEVPSKQARNEHEAAEKLKFVICPRPKAFQNGAGDAGAKNNAARTVEERI
notes: prey, AD fusion; also called Novel protein PN23495
binding result [4]: binds

B5: OsMADS14 aa 82-197 (other)
chain: SAESDTQGNWCHEYRKLKAKVETIQKCQKHLMGEDLESLNLKELQQLEQQLENSLKHIRSRKSQLMLESINELQRKEKSLQEENKVLQKELVEKQKVQKQQVQWDQTQPQTSSSSS
notes: as for B14
binding result [5]: binds

B6: PN23297 aa 980-1160 (other)
chain: LRLTLERRLRAAGEEAKSVEILKRDKLIESLSAKCAAAKSAAQSEHDKNLLLQRQLDDSLREITMLRSSKIMTAEAERENSNLKNLVESLSKNNSSLEYELTSARKGSDATMKKLKDVEGKCNHLQQNLDKLQEKLTNMENENHVLRQKALNMSPLNNMPMTTKAFPQKFATPIGLPNGEQ
notes: prey, AD fusion; also called 15451591; O. sativa Putative Myosin Heavy Chain
binding result [3]: binds

B7: OsPN23274 aa 79-210 (other)
chain: GELPRSASLCLREVLLVLQRFKAIVADCSARSRMRLLLESDEMEAELRELNHDLATLLDLLPVVELGLADDVLDVLALASRQCRRCSPAPESEEALKASVLSLIQEIEREIVPERERLEEILVEVGINDPAS
notes: prey, AD fusion; also called Novel Protein PN23274, Similar to A. thaliana ARM Repeat-Containing Protein
binding result [3]: binds
